In one data set the test system is T1, AV199-237.
T1 sequence: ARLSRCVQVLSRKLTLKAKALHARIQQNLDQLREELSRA

Another data set relates to T2, AV199-232.
T2 sequence: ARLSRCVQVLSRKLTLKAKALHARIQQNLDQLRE

For the substance lipoprotein lipase (LpL), SIGMA, the “LpL hydrolytic activity (EnzChek fluorogenic TG substrate), peptide pre-incubated with VLDL” value in the data set with AV199-237 is on record as “hydrolytic activity was increased ˜4-fold”. Moreover, the “affinity of LpL for substrate on addition of VLDL (10 µg/ml)” value in the data set on apoC-III content of VLDL is recorded as “The addition of VLDL reduced the enzymes affinity for substrate by 5.3-fold”. In the data set on AV199-232, the “Km of LpL for substrate, with VLDL, 2.5 µM peptide” value is “substantially improved the Km by almost 8-fold” and the “apparent affinity of LpL for substrate (Michaelis-Menten fit), AV199-232 (2.5 µM) + VLDL (10 µg/ml)” value was “AV199-232+VLDL increases LpL's apparent affinity for substrate by 7.8-fold”.

For the origin of these results see US20170305981.
